Assays:
[1] = system: HeLa Kyoto; test: solubility in G1/S (NP-40 vs SDS abundance) (log2 ratio); higher = more soluble; settings: cell cycle stage: G1/S
[2] = system: HeLa Kyoto; test: melting temperature (median over replicates), in situ; higher = more thermally stable
[3] = system: HeLa Kyoto; test: solubility change mitosis vs G1/S (difference of NP-40 vs SDS log2 ratios) (log2 ratio difference); higher = more soluble in mitosis
[4] = system: HeLa Kyoto; test: thermal stability score vs G1/S (z-score of summed log2 fold changes over temperatures); higher = more thermally stable than in G1/S
[5] = cell cycle stage: early G1 (4.5 h after nocodazole release)
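For melting temperature (median over replicates), in situ in this document: HeLa Kyoto cells synchronized by double thymidine or nocodazole block, proteins quantified by TMT10plex mass spectrometry, three independent biological replicates.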
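For solubility change mitosis vs G1/S (difference of NP-40 vs SDS log2 ratios) in this document: synchronized HeLa Kyoto cells (double thymidine block for G1/S, nocodazole release for mitosis), protein amounts in NP-40 versus SDS lysates quantified by mass spectrometry, three biological replicates.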
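For solubility in G1/S (NP-40 vs SDS abundance) in this document: HeLa Kyoto cells arrested at G1/S by double thymidine block, proteins quantified by TMT10plex mass spectrometry in mild NP-40 versus SDS extracts, three biological replicates.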
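For thermal stability score vs G1/S (z-score of summed log2 fold changes over temperatures) in this document: synchronized HeLa Kyoto cells, proteins quantified by TMT10plex mass spectrometry, three biological replicates, mitosis taken 0.5 h after nocodazole release, G1/S directly after double thymidine block.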

MAEPVSPLKHFVLAKKAITAIFDQLLEFVTEGSHFVEATYKNPELDRIATEDDLVEMQGYKDKLSIIGEVLSRRHMKVAFFGRTSSGKSSVINAMLWDKVLPSGIGHITNCFLSVEGTDGDKAYLMTEGSDEKKSVKTVNQLAHALHMDKDLKAGCLVRVFWPKAKCALLRDDLVLVDSPGTDVTTELDSWIDKFCLDADVFVLVANSESTLMNTEKHFFHKVNERLSKPNIFILNNRWDASASEPEYMEDVRRQHMERCLHFLVEELKVVNALEAQNRIFFVSAKEVLSARKQKAQGMPESGVALAEGFHARLQEFQNFEQIFEECISQSAVKTKFEQHTIRAKQILATVKNIMDSVNLAAEDKRHYSVEEREDQIDRLDFIRNQMNLLTLDVKKKIKEVTEEVANKVSCAMTDEICRLSVLVDEFCSEFHPNPDVLKIYKSELNKHIEDGMGRNLADRCTDEVNALVLQTQQEIIENLKPLLPAGIQDKLHTLIPCKKFDLSYNLNYHKLCSDFQEDIVFRFSLGWSSLVHRFLGPRNAQRVLLGLSEPIFQLPRSLASTPTAPTTPATPDNASQEELMITLVTGLASVTSRTSMGIIIVGGVIWKTIGWKLLSVSLTMYGALYLYERLSWTTHAKERAFKQQFVNYATEKLRMIVSSTSANCSHQVKQQIATTFARLCQQVDITQKQLEEEIARLPKEIDQLEKIQNNSKLLRNKAVQLENELENFTKQFLPSSNEES [MFN1]
solubility in G1/S (log2) [1]: -0.168 | melting temperature ([2]; cell cycle stage: G1/S): 52 °C | melting temperature ([2]; cell cycle stage: mitosis): 51.3 °C | solubility change mitosis (log2) [3]: -0.0897 | thermal stability score [4, 5]: -0.212 | thermal stability score ([4]; cell cycle stage: mitosis): -0.832

MAEQEPTAEQLAQIAAENEEDEHSVNYKPPAQKSIQEIQELDKDDESLRKYKEALLGRVAVSADPNVPNVVVTGLTLVCSSAPGPLELDLTGDLESFKKQSFVLKEGVEYRIKISFRVNREIVSGMKYIQHTYRKGVKIDKTDYMVGSYGPRAEEYEFLTPVEEAPKGMLARGSYSIKSRFTDDDKTDHLSWEWNLTIKKDWKD [ARHGDIA]
solubility in G1/S (log2) [1]: 0.25 | melting temperature ([2]; cell cycle stage: G1/S): 51.5 °C | melting temperature ([2]; cell cycle stage: mitosis): 51.7 °C | solubility change mitosis (log2) [3]: -0.109 | thermal stability score [4, 5]: 0.408 | thermal stability score ([4]; cell cycle stage: mitosis): -2.01

MAERAALEELVKLQGERVRGLKQQKASAELIEEEVAKLLKLKAQLGPDESKQKFVLKTPKGTRDYSPRQMAVREKVFDVIIRCFKRHGAEVIDTPVFELKETLMGKYGEDSKLIYDLKDQGGELLSLRYDLTVPFARYLAMNKLTNIKRYHIAKVYRRDNPAMTRGRYREFYQCDFDIAGNFDPMIPDAECLKIMCEILSSLQIGDFLVKVNDRRILDGMFAICGVSDSKFRTICSSVDKLDKVSWEEVKNEMVGEKGLAPEVADRIGDYVQQHGGVSLVEQLLQDPKLSQNKQALEGLGDLKLLFEYLTLFGIDDKISFDLSLARGLDYYTGVIYEAVLLQTPAQAGEEPLGVGSVAAGGRYDGLVGMFDPKGRKVPCVGLSIGVERIFSIVEQRLEALEEKIRTTETQVLVASAQKKLLEERLKLVSELWDAGIKAELLYKKNPKLLNQLQYCEEAGIPLVAIIGEQELKDGVIKLRSVTSREEVDVRREDLVEEIKRRTGQPLCIC [HARS]
solubility in G1/S (log2) [1]: 0.354 | melting temperature ([2]; cell cycle stage: G1/S): 53.5 °C | melting temperature ([2]; cell cycle stage: mitosis): 53 °C | solubility change mitosis (log2) [3]: -0.113 | thermal stability score [4, 5]: 5.06 | thermal stability score ([4]; cell cycle stage: mitosis): 4.5

MAERGELDLTGAKQNTGVWLVKVPKYLSQQWAKASGRGEVGKLRIAKTQGRTEVSFTLNEDLANIHDIGGKPASVSAPREHPFVLQSVGGQTLTVFTESSSDKLSLEGIVVQRAECRPAASENYMRLKRLQIEESSKPVRLSQQLDKVVTTNYKPVANHQYNIEYERKKKEDGKRARADKQHVLDMLFSAFEKHQYYNLKDLVDITKQPVVYLKEILKEIGVQNVKGIHKNTWELKPEYRHYQGEEKSD [GTF2F2]
solubility in G1/S (log2) [1]: 0.436 | melting temperature ([2]; cell cycle stage: G1/S): 52.6 °C | melting temperature ([2]; cell cycle stage: mitosis): 52.6 °C | solubility change mitosis (log2) [3]: -0.0476 | thermal stability score [4, 5]: 0.0893 | thermal stability score ([4]; cell cycle stage: mitosis): 0.0418

MAERGYSFSLTTFSPSGKLVQIEYALAAVAGGAPSVGIKAANGVVLATEKKQKSILYDERSVHKVEPITKHIGLVYSGMGPDYRVLVHRARKLAQQYYLVYQEPIPTAQLVQRVASVMQEYTQSGGVRPFGVSLLICGWNEGRPYLFQSDPSGAYFAWKATAMGKNYVNGKTFLEKRYNEDLELEDAIHTAILTLKESFEGQMTEDNIEVGICNEAGFRRLTPTEVKDYLAAIA [PSMA2]
solubility in G1/S (log2) [1]: 0.391 | melting temperature ([2]; cell cycle stage: G1/S): 58.3 °C | melting temperature ([2]; cell cycle stage: mitosis): 60.8 °C | solubility change mitosis (log2) [3]: -0.045 | thermal stability score [4, 5]: -1.52 | thermal stability score ([4]; cell cycle stage: mitosis): -1.53

From the supplement of paper PMC5998384
